Laboratory results taken from patent US20150266922A1 (GEORG AUGUST UNIVERSITAT GOTTINGEN STIFTUNG OFFENTLICHEN …, published 2015).
One block for each binder: values may come before it.

What was measured:
[1] = molecular target: T1, Dipeptidyl peptidase 9 (DPP9), recombinant wild-type (human, UniProt Q86TI2 1-863); assay: cell-based or functional assay
[2] = molecular target: T1, Dipeptidyl peptidase 9 (DPP9), …; assay: cell-based or functional assay; remark: listed apart in the source
SUMO1 = molecular target: T2, SUMO1 (UniProt P63165 1-97, limits assumed); assay: competition ELISA: SUMO1 pre-incubated with the peptide, then added to immobilized DPP9
T2 construct: Immobilized on CnBr Sepharose beads or ELISA wells, or free in solution; also called S1
T2 sequence (P63165 1-97 limits assumed): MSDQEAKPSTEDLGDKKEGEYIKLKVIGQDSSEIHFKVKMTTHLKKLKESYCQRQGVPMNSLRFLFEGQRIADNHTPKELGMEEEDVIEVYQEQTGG
Procedure: ELISA: A 96 well plate (Immuno 96 MicroWell™ Solid Plates, Nunc) was coated with 600 ng purified recombinant proteins per well in 100 μl TB, overnight at 4° C. Next, wells were blocked with ELISA buffer (TB supplemented with 3% BSA) for 1 h at room temperature. After blocking, recombinant interacting proteins were added to the wells. Following 2 hours of incubation at 25° C., wells were washed four times. […] After incubation with secondary antibodies, wells were washed with ELISA buffer and ddH20. Reactions were developed with TMB-substrate reagent set from BD (OptEIA substrate). Absorbance was measured at 420 nm on an Appliskan microplate fluorimeter (Thermo Scientific) and the Skanit software. Experiments were performed at least three times, in triplicates.

T1 sequence (Q86TI2 other isoform, or with tags, fused parts or gaps limits assumed, form in doubt): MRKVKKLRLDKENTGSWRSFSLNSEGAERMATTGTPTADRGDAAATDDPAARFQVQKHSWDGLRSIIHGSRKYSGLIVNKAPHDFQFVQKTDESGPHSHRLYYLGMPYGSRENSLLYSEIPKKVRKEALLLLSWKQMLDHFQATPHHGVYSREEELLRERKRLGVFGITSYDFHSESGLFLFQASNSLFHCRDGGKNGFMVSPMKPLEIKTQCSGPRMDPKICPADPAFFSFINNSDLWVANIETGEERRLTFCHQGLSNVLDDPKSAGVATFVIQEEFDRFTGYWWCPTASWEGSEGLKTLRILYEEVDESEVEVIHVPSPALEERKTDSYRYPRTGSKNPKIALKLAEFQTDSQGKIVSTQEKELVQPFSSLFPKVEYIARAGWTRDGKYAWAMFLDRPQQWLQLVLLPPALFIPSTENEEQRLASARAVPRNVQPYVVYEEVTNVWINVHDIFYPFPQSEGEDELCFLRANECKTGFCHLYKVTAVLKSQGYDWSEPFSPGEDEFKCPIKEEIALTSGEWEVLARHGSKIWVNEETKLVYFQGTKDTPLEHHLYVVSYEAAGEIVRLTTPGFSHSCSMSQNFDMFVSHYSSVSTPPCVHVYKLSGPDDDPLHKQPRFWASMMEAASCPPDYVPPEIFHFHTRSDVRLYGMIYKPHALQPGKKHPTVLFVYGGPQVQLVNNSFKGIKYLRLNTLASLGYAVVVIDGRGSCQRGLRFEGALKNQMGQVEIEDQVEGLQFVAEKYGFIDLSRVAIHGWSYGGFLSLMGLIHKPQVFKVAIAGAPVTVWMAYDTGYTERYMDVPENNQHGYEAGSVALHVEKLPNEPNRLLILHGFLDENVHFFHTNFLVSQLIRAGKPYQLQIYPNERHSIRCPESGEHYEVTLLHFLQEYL

- % DPP9 activity (Mean), 14 µM peptide [1]: 29.1%
Binder: SLRFLFEGQRI [… (SEQ ID NO: 27)]

- % DPP9 activity (Mean), 14 µM peptide [1]: 28.6%
Binder: SLRFLVEGQRIADNH [SLRFLVEGQRIADNH (SEQ ID NO: 19)]

- % DPP9 activity (Mean), 10 µM peptide [2]: 29.2%
Binder: TLRFLFEG [TLRFLFEG (SEQ ID NO: 41)]

- % DPP9 activity (Mean), 10 µM peptide [2]: 91.2%
Binder: AAASLRFLYEG [AAASLRFLYEG (SEQ ID NO: 44)]

- % DPP9 activity (Mean), 14 µM peptide [1]: 55.9%
Binder: FLFEGQRI [… (SEQ ID NO: 33)]

- % DPP9 activity (Mean), 10 µM peptide [2]: 16.3%
Binder: SLRFLYAG [SLRFLYAG (SEQ ID NO: 40)]

- % DPP9 activity (Mean), 14 µM peptide [1]: 19.5%
Binder: SLRFLFEAQRIADNH [SLRFLFEAQRIADNH (SEQ ID NO: 22)]

- % DPP9 activity (Mean), 14 µM peptide [1]: 79.8%
Binder: RFLFEGQRIADNH [… (SEQ ID NO: 23)]

- % DPP9 activity (Mean), 14 µM peptide [1]: 18.4%
Binder: SLRFLFEGQR [… (SEQ ID NO: 28)]

- % DPP9 activity (Mean), 10 µM peptide [2]: 91.5%
Binder: RRRRSLRFLYAG [RRRRSLRFLYAG (SEQ ID NO: 47)]

- % DPP9 activity (Mean), 14 µM peptide [1]: 42.7%
Binder: LFEGQRIADNH [… (SEQ ID NO: 24)]

- % DPP9 activity (Mean), 14 µM peptide [1]: 56.4%
Binder: SLRFLFEGQRIADNR [SLRFLFEGQRIADNR (SEQ ID NO: 16)]

- % DPP9 activity (Mean), 10 µM peptide [2]: 92.2%
Binder: RRRRSLRFLFEG [RRRRSLRFLFEG (SEQ ID NO: 46)]

- % DPP9 activity (Mean), 10 µM peptide [2]: 15.3%
Binder: SLRFLFAG [SLRFLFAG (SEQ ID NO: 39)]

- % DPP9 activity (Mean), 14 µM peptide [1]: 66.4%
Binder: RFLFEGQRIAD [… (SEQ ID NO: 31)]

- % DPP9 activity (Mean), 14 µM peptide [1]: 26.9%
Binder: SLRFLWEGQRIADNH [SLRFLWEGQRIADNH (SEQ ID NO: 18)]

- binding result (SUMO1): binds
B1: DPP9-arm peptide (285-VEVIHVPSPALEERKTDSYR-304) (peptide)
peptide: VEVIHVPSPALEERKTDSYR
notes: also called peptide corresponding to the extended arm of DPP9

- % DPP9 activity (Mean), 14 µM peptide [1]: 49%
Binder: FLIEGQRI [FLIEGQRI (SEQ ID NO: 36)]

- % DPP9 activity (Mean), 10 µM peptide [2]: 23.9%
Binder: SLRFLYEGAAA [SLRFLYEGAAA (SEQ ID NO: 45)]

- % DPP9 activity (Mean), 14 µM peptide [1]: 38.4%
Binder: FLFEGQRIA [… (SEQ ID NO: 32)]

- % DPP9 activity (Mean), 14 µM peptide [1]: 72.9%
Binder: SLRFLAEGQRIADNH [SLRFLAEGQRIADNH (SEQ ID NO: 21)]

- % DPP9 activity (Mean), 14 µM peptide [1]: 74.9%
Binder: SLRFLFDGQRIADNH [SLRFLFDGQRIADNH (SEQ ID NO: 17)]
